According to patent publication US20240417437A1 (TRUTINO BIOSCIENCES, published 2024):
Blank lines part the entries; values can stand above or below the binder they belong to.

Columns and labels:
[1] = molecular target: fibronectin (Sigma), coated on 96-well plates; assay: plate ELISA on coated fibronectin at pH 6, OD 450-650nm. The EC50 is printed in the plot area beside the top curve (Construct EE - pH 6), the only strongly rising curve
Procedure: A similar plate-based assay was developed to interrogate binding of IL-2 fusion variants to fibronectin. 96-well plates were coated with fibronectin (4-10 μg/mL, Sigma) or control BSA for 18-22 hours at room temperature on shaker (350 rpm). After washing, wells were blocked with 2% milk powder in PBS-0.05% Tween 20 or protein-free blocking buffer (Pierce) for 90 min, then fusion proteins were titrated in blocking buffer-0.1% Tween 20, pH 7.5 and/or pH 6, and added for 1 hour at room temperature with shaking. After washing, an anti-mouse IL-2 biotin-labelled detection antibody (JES6-5H4, ThermoFisher) or anti-human IgG HRP conjugate antibody (SouthernBiotech) was added, and binding was detected using Ultra Streptavidin HRP (ThermoFisher). The plate was developed by adding the chromogenic tetramethylbenzidine substrate (Ultra TMB, ThermoFisher). The reaction was stopped by addition of 0.5 M H₂SO₄, and the absorbance was read at 450-650 nm.

[2] = molecular target: T1, collagen cross-linked to agarose (Sigma); assay: pulldown with collagen-agarose, immunoblot quantified with iBright imaging system; reference Construct B
T1 construct: also called collagen-agarose; collagen-agarose beads
Procedure: To test binding to collagen, a pulldown assay using agarose cross-linked to collagen (Sigma) was performed. IL-2 fusion proteins were incubated with collagen-agarose or control agarose beads for 18-22 hours at 4° C. with gentle rotation in 1% BSA/PBS-0.05% Tween 20. After washing, proteins bound to the beads were eluted by resuspending beads in SDS sample buffer (Life Technologies). […] Donkey anti-goat HRP-conjugated antibody was used for detection (Jackson Immuno Research, West Grove, PA), and the blot was developed using the SuperSignal West Femto Maximum sensitivity detection reagent (ThermoFisher) following the manufacturer's recommendations. Construct GG and Construct II were specifically bound by collagen-agarose beads, while no IL-2 fusion protein bound the control agarose beads.

Sequence of fibronectin (Sigma), coated on 96-well plates (P02751 32-2477): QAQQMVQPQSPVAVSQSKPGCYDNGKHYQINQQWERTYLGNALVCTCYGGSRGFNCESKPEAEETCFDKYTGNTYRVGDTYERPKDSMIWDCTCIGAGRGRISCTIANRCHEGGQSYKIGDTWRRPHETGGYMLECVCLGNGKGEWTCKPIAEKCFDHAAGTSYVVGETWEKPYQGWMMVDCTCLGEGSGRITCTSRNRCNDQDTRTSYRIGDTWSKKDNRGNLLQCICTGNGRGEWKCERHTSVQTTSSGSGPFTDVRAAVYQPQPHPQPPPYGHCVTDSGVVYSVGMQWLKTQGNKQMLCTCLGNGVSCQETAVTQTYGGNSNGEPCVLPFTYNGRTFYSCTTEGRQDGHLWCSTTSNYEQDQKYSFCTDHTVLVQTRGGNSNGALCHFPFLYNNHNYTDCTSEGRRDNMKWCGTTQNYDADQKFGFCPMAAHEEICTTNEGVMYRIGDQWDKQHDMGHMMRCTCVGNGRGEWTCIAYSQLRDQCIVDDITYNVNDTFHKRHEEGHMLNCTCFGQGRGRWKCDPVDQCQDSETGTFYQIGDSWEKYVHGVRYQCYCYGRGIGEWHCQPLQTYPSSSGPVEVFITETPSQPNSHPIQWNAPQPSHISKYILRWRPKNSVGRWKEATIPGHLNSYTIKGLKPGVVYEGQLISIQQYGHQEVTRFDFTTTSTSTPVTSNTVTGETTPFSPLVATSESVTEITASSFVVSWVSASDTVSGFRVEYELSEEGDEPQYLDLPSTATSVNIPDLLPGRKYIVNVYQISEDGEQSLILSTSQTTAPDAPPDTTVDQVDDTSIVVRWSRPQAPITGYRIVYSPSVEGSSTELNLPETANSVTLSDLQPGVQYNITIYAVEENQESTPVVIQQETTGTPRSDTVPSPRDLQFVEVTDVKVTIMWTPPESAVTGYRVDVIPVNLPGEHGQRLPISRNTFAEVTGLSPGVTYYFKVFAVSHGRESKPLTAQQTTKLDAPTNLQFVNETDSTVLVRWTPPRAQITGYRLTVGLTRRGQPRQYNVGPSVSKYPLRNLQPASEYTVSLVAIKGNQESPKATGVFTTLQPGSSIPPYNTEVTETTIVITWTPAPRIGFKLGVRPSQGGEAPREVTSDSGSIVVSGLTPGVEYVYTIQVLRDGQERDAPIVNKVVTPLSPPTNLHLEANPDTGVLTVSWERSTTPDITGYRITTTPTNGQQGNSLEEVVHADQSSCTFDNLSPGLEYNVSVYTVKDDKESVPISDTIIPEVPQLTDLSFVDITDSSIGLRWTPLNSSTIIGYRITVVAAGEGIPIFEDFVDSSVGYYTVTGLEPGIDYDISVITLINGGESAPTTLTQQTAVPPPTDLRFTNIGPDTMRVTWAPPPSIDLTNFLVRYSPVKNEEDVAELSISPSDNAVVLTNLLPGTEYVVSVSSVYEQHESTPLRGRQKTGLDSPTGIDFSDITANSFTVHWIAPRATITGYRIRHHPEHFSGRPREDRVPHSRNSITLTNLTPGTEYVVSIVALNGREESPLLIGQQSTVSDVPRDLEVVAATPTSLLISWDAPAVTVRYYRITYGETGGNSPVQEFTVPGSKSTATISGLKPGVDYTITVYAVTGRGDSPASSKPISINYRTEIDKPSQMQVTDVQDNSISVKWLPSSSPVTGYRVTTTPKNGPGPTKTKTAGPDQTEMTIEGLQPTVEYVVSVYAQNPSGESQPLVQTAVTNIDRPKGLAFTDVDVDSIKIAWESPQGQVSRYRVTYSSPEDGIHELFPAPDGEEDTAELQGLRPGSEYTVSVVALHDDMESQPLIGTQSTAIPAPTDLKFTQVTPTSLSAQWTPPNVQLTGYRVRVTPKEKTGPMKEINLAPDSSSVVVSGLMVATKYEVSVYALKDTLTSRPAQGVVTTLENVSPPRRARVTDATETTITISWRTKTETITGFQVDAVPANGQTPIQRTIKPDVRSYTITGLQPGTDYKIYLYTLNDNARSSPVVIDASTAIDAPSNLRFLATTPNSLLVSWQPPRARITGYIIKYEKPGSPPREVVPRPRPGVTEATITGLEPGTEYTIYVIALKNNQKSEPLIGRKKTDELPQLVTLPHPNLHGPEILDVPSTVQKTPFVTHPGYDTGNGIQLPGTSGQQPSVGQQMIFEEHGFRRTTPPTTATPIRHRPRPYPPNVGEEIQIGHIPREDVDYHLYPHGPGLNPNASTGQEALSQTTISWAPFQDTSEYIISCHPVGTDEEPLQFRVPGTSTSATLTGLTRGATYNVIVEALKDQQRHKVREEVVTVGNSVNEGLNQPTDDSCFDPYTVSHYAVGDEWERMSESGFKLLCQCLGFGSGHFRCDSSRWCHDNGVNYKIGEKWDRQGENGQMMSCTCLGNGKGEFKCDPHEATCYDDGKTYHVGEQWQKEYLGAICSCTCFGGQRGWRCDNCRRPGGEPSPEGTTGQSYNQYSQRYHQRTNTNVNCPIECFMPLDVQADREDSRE

EC50 [1]: 1820 nM
B1: Construct EE (pH fibronectin): mIL2-SGG-GGWSHW(SEQ ID NO: 653)-MMPcs1-2x(G4S)-mIL2Ra(1-215)-muIgG1Fc (Fc fusion)
chain: APTSSSTSSSTAEAQQQQQQQQQQQQHLEQLLMDLQELLSRMENYRNLKLPRMLTFKFYLPKQATELKDLQCLEDELGPLRHVLDLTQSKSFQLEDAENFISNIRVTVVKLKGSDNTFECQFDDESATVVDFLRRWIAFCQSIISTSPQSGGGGWSHWGPLGVRGGGGGSGGGGSELCLYDPPEVPNATFKALSYKNGTILNCECKRGFRRLKELVYMRCLGNSWSSNCQCTSNSHDKSRKQVTAQLEHQKEQQTTTDMQKPTQSMHQENLTGHCREPPPWKHEDSKRIYHFVEGQSVHYECIPGYKALQRGPAISICKMKCGKTGWTQPQLTCVDEREHHRFLASEESQGSRNSSPESETSCPITTTDFPQPTETTAMTETFVLTMEYKGCKPCICTVPEVSSVFIFPPKPKDVLTITLTPKVTCVVVDISKDDPEVQFSWFVDDVEVHTAQTQPREEQFNSTFRSVSELPIMHQDWLNGKEFKCRVNSAAFPAPIEKTISKTKGRPKAPQVYTIPPPKEQMAKDKVSLTCMITDFFPEDITVEWQWNGQPAENYKNTQPIMDTDGSYFVYSKLNVQKSNWEAGNTFTCSVLHEGLHNHHTEKSLSHSPGK
notes: Single-chain mouse IL-2 / IL-2Ralpha / mouse IgG1 Fc fusion

fold of bound fraction over Construct B [2]: 1.4 fold
B2: Construct II (collagen I): mIL2-LHERHLNNN(SEQ ID NO: 665)-MMPcs1-2x(G4S)-mIL2Ra(1-215)-muIgG1Fc (Fc fusion)
chain: APTSSSTSSSTAEAQQQQQQQQQQQQHLEQLLMDLQELLSRMENYRNLKLPRMLTFKFYLPKQATELKDLQCLEDELGPLRHVLDLTQSKSFQLEDAENFISNIRVTVVKLKGSDNTFECQFDDESATVVDFLRRWIAFCQSIISTSPQSLHERHLNNNGPLGVRGGGGGSGGGGSELCLYDPPEVPNATFKALSYKNGTILNCECKRGFRRLKELVYMRCLGNSWSSNCQCTSNSHDKSRKQVTAQLEHQKEQQTTTDMQKPTQSMHQENLTGHCREPPPWKHEDSKRIYHFVEGQSVHYECIPGYKALQRGPAISICKMKCGKTGWTQPQLTCVDEREHHRFLASEESQGSRNSSPESETSCPITTTDFPQPTETTAMTETFVLTMEYKGCKPCICTVPEVSSVFIFPPKPKDVLTITLTPKVTCVVVDISKDDPEVQFSWFVDDVEVHTAQTQPREEQFNSTFRSVSELPIMHQDWLNGKEFKCRVNSAAFPAPIEKTISKTKGRPKAPQVYTIPPPKEQMAKDKVSLTCMITDFFPEDITVEWQWNGQPAENYKNTQPIMDTDGSYFVYSKLNVQKSNWEAGNTFTCSVLHEGLHNHHTEKSLSHSPGK
